Broadly, the stoichiometry N is the number of molecules, sites or subunits per partner or assembly.

These results are taken from doi:10.1101/2021.05.21.445086.

For this experiment, the target named is mS105 (Chlamydomonas reinhardtii (endogenous in strain CC-4351)). Description: cryo-EM structure.

In turn, mS105 (natural protein) came in with a stoichiometry N of 3.
